Tests used:
Format in all cases: cell-based
[1] = test system: HIV-infected (NLHX strain) and uninfected Jurkat T-cells; assay: FACS analysis of transduction and retention of fusion proteins in HIV-infected and uninfected Jurkat T-cells; details: about 35 to 45 nanomoler, about 30 minutes, HIV (NLHX) infected Jurkat culture
Protocol: To see if p16 fusion proteins could remain in the cell cytosol of the HIV infected cells, the TAT-HIV1,2 p16 fusion proteins produced in Example 3 were purified and labeled with FITC as described above. About 35 to 45 nanomoler of the labeled fusion protein was then added to HIV-infected (NLHX strain) and uninfected Jurkat T-cells in accordance with Example 6 below. The transduced Jurkat T-cells were then analyzed by FACS. All (100%) of cells in a mixed population of HIV infected/uninfected cells were transduced with the p16 protein at 1, 2, 4, 8 and 16 hours post-addition of the FITC conjugated fusion protein. However, when the cells were washed in fresh media and the PTD has driven out of the cells due to the concentration gradient (now high inside and 0 outside), the infected cells retained the cleaved substrate (the p16 portion) but uninfected controls lost all of the transduced protein (it transduced out) as determined by the continued presence of FITC-labeled p16 as analyzed by FACS.
About 5×10^6 Jurkat T-cells were infected by HIV (strain NLHX; about 1×10^5 to 1×10^6 infectious virus per ml). The cells were propagated in RPMI media. Approximately 4 to 7 days after the infection, the media was removed from the plates and about 35 to 45 nanomoler of the TAT-CPP32 fusion protein was added to the cells. […]

Jurkat T cells = assay: Co-transduction of uninfected Jurkat T cells with TAT-CPP32 and TAT-Protease, survival by trypan-blue exclusionary dye microscopy; details: 50-100 nM, uninfected Jurkat T cells, 18 hr post-addition
Protocol: To test for activation of the TAT-CPP32 by TAT-Protease, 2×10^6 Jurkat T cells were placed in 2 ml of culture (RPMI media). To these cells, various combinations of control and experimental transducible proteins were added in 50-100 nM ranges, as follows:
The cells were assayed for survival at 18 hr post-addition by trypan-blue exclusionary dye microscopy. […] Thus, activation of TAT-CPP32 requires the presence of HIV protease.

[2] = test system: Jurkat T-cells infected by HIV (strain NLHX); assay: Killing of HIV-infected Jurkat T-cells, trypan blue exclusion and microscopy; details: about 18 hours post-transduction
Protocol: About 5×10^6 Jurkat T-cells were infected by HIV (strain NLHX; about 1×10^5 to 1×10^6 infectious virus per ml). The cells were propagated in RPMI media. Approximately 4 to 7 days after the infection, the media was removed from the plates and about 35 to 45 nanomoler of the TAT-CPP32 fusion protein was added to the cells. The cells were incubated with the fusion proteins for about 30 minutes to allow transduction into the cells. […] Subsequently, media was added back to the plates and after about 18 hours post-transduction, the cells were examined for cell killing using conventional trypan blue exclusion and microscopy.
Briefly, cells were infected and transduced as described in Example 6 above. Following the transduction, about 1 μg/ml Ritonavir was added to the cell media and allowed to incubate with the cells for about 18 hours. The cells were then assayed for cell killing by conventional trypan blue exclusion and microscopy. […]

B1: TAT-CPP32: HIS-TAT-PTD-HIV2-large subunit of CPP32-HIV1-small subunit of CPP32 fusion protein (protein)
chain: GRKKRRQRRRGYPYDVPDYACTERQANFLGKIWPGISLDNSYKMDYPEMGLCIIINNKNFHKSTGMTSRSGTDVDAANLRETFRNLKYEVRNKNDLTREEIVELMRDVSKEDHSKRSSFVCVLLSHGEEGIIFGTNGPVDLKKITNFFRGDRCRSLTGKPKLFIIQACRGTELDCGIETSQVSQNYPIVQNLQGVDDDMACHKIPVEADFLYAYSTAPGYYSWRNSKDGSWFIQSLCAMLKQYADKLEFMHILTRVNRKVATEFESFSFDATFHAKKQIPCIVSMLTKELYFYH
modifications: left off: small tags and cut ends
notes: HIS-TAT-PTD-HIV2-large subunit of CPP32-HIV1-small subunit of CPP32 fusion protein
cells transduced by the fusion protein [1]: about 100% | cytotoxicity when added alone (Jurkat T cells): minimal cytotoxicity | loss of viable cells when added plus TAT-Protease (Jurkat T cells): substantial loss of viable cells | killing of HIV-infected cells ([2]; about 35 to 45 nanomoler): about all of the infected cells were killed | killing of uninfected cells in the population [2]: does not kill

From patent publication US6645501B2, “Anti-pathogen system and methods of use thereof” (Washington University, priority 1997, dated 2003)
